This assay has as its target GFP1–10 tagged with MCP, with nuclear localization sequences. The experiment in a line: P3 editing (protein-protein proximity sensor; genome editing read-out); HEK293T cells transfected with one of 12 designs of crRNA-MS2/BoxB-petracrRNA (upper 4-bp region of the repeat:anti-repeat duplex varied), PE4max and split-GFP or standard GFP (background); editing normalized to the eCTT control.

Regarding “GFP11 tagged with LambdaN, with nuclear localization sequences (peptide)”, the normalized editing efficiency (GAUA:UAUC guide RNA design) turned out to be 3.8%.

The record behind these values is doi:10.1101/2023.08.14.553235.
